Literature values as cited in paper PMC10170156.

Molecular target: EGFR (Homo sapiens) (UniProt P00533)

- Kd: 4 nM
Substance: EGF (from UniProt P01133)
